Measurements reported in the nanobody polyreactivity screen of Harvey et al. (2022).

test: yeast display, Sf9 membrane polyspecificity reagent, FACS + sequencing; frameworks hold sequencing errors
Outline: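 After 36–48 hours of galactose induction, yeast (Saccharomyces cerevisiae BJ5465) displaying a synthetic nanobody library were stained at 4 °C for 1 hour with 10% biotinylated, detergent-solubilized Sf9 membrane reagent. Streptavidin microbeads enriched the stained cells before FACS sorting into low and high (top ~1%) gates on anti-HA and streptavidin fluorescence. Each clone's polyreactivity label reflects its gate of origin.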

| Sequence | polyreactivity (PSR sort gate) |
| --- | --- |
| QVQLVESGGGLVQAGGSLRLSCAASGRNFTSNTMGWYRQAPGTETELVAAITSSGGSMYYADSVKGRFTISRDNAKNTVYLQMNSLKPEDTAVYYCAADTIGYHYWYDYWGQGTQVTVSS | low polyreactivity |
| QVQLVESGGGLVQAGGSLRLSCAASGRNFWDYAMGWYRQAPGKERELVAGISYSGGSTSYADSVKGRFTISRDNAKNTVYLQMNSLKPEDTAVYYCAAGPSGTFFRDYDYWGQGTQVTVSS | low polyreactivity |
| QVQLVESGGGLVQAGGSLRLSCAASGRNFYAYAMGWYRQAPGKERELVAGITYSGSSTYYADSVKGRFTISRDNAKNTVYLQMNSLKPEDTAVYYCAADLTRVLRYNYWGQGTQVTVSS | low polyreactivity |
| QVQLVESGGGLVQAGGSLRLSCAASGRNFYQYGMGWYREAPGKERELVAAISDSGGGTYYADSVKGRFTISGDNAKNTVYLQMNSLKPEDSAVYYCAATYVGPRRRYYYWGQGTQVTVSS | high polyreactivity |
| QVQLVESGGGLVQAGGSLRLSCAASGRNISYNAMGWSRQAPGKERELVAAISWGGGSTYYADSVKGRFTISRDNAKNTVYLQMNSLKPEDTAVYYCAKGWYRIKRNDYWGQGTQVTVSS | low polyreactivity |
| QVQLVESGGGLVQAGGSLRLSCAASGRNLGYNAMGWYRQAPGKERELVAAISWSGGSTYYADSVKGRFTISRDNAKNTVYLQMNSLKPEDTAVYYCAARNNRYPLYNYWGQGTQVTVSS | low polyreactivity |
| QVQLVESGGGLVQAGGSLRLSCAASGRNPMGWYRQAPGKDRELVASISRTGGSTYYADSVKGRFTISRDNAKNTDYLQMNSLKPEDTAVYYCNYFRRPPMYYWGQGTQVTVSS | high polyreactivity |
| QVQLVESGGGLVQAGGSLRLSCAASGRPFDFYAMGLYRQAPGKERELVADISTGGSTYYADSVKGRFTISRDNAKNTVYLQMNSLKPEDTAVYYCAAVGQDYYKVRYYYWGQGTQVTVSS | low polyreactivity |
| QVQLVESGGGLVQAGGSLRLSCAASGRPFHRNAMGWYRPAPGKERELVAAITGDGRTNYADSVKGRFTLSRDNAKNTVYLQMNSLKPEDTAFYYCAAEAVWFVGQAFDISDSTTYGFWGQGTQVTVSS | low polyreactivity |
| QVQLVESGGGLVQAGGSLRLSCAASGRPFSGYAMGWYRQAPGKERELVAAITSSGSSTYYADSVKGRFTISRDNAKNTVYLQMNSLKPEDTAVFYCAATPQAHSERYYYQRKYDYWGQGTQVTVSS | low polyreactivity |
| QVQLVESGGGLVQAGGSLRLSCAASGRPFTWYALGWYRQAPGKEREVVAAISKSGGSTYYADSVKGRFTISRDNAKNTVYLQMNSLKPEDTAVYYCNADFYGYFLGYGYCGQGTQVTVSS | low polyreactivity |
| QVQLVESGGGLVQAGGSLRLSCAASGRSFSRNAMGWYRQAPGTERELVAGISSGGSTNYADSVKGRFTISPDTAKNTVYIQMNSLKPEDTAVYYCAKDSAEFVTRYDYWGQGTQVTLSS | low polyreactivity |
| QVQLVESGGGLVQAGGSLRLSCAASGRSFYGYAMGWYRQAPGKERELVARISGGGRTYYADSVKGRFTISRDNAKNTVYLQMNSLNPEDTAVYYCAAVYRSTWYGFTGSVGTFDYWGQGTQVTVSS | high polyreactivity |
| QVQLVESGGGLVQAGGSLRLSCAASGRSFYTNAMGWYRPAPGKERELLAAIRRSGTSTYYADSVKGRFTISRDNAYNTVYLQMNSLKPEDTAVYYCAALRSLLYRTYGYWGLGTQVTVSS | low polyreactivity |
| QVQLVESGGGLVQAGGSLRLSCAASGRSYRRNTMGWYRQAPGKERELVAAISNRGTSTYYADSVKGRFTISRDNEKNTVYLLMNSLKPEDTAVYYCAARGVRSYFFPYNYWGQGTQVTVSS | high polyreactivity |
| QVQLVESGGGLVQAGGSLRLSCAASGRTCSNYAMGWYRQAPGKERELVAAISYSVGSTYYADSVKGRFTIARDNAKNTVYLQMNSLKPEDTAVYYCNAKSRPHYAWYRYDYWGQGTQVTVSS | high polyreactivity |
| QVQLVESGGGLVQAGGSLRLSCAASGRTCSRYAMGLYRQAPGKERELFAAISKSSGTTSYADSVKGRFSISRDNAKNTVYLQMIRLNPEDTAVYYFAAGITGRYYGVRFSEDYWGQGTQVTVSS | high polyreactivity |
| QVQLVESGGGLVQAGGSLRLSCAASGRTCYINAMGWYRQAPGKERELVAAISSGGSTNYADSVKGRFTISRDNAKNTVYLQMNSLKPEDTAVYYCNAKYYQGTPVELDYWGQATQVTVSS | low polyreactivity |
| QVQLVESGGGLVQAGGSLRLSCAASGRTDFNTMGWYRQAPGKERELVAAITSTGRTYYADSVKGRFTISRDNAKNTVYLQMNSLKPEDTAVYFCAAVWRYKGLLLPSYYYWGQGTQVTVSS | high polyreactivity |
| QVQLVESGGGLVQAGGSLRLSCAASGRTFAAYAMGWYRQAPGKERELVAAIRRGGTTNYADSVKGRFTISRDNAKNTVYLQMNSLKPEDTAVYYCAALAPYSRSWVTYDYWGQGSQVTVSS | low polyreactivity |
| QVQLVESGGGLVQAGGSLRLSCAASGRTFAAYAMGWYRQAPGKERELVAAIRRGGTTNYADSVKGRFTISRDNAKNTVYLQMNSLKPEDTAVYYCAALAPYSRSWVTYDYWGQGTQVTVSS | low polyreactivity |
| QVQLVESGGGLVQAGGSLRLSCAASGRTFADNAMGWYRQAPGKERELVASISSGTSTNYADSVKGRFTISRDNAKNTVYLQMNSLKPEDTAVYYCNAYGPIWYTAVLGVGRYYGWTDYWGQGTQVTVSS | low polyreactivity |

| Sequence | polyreactivity (PSR sort gate) |
| --- | --- |
| QVQLVESGGGLVQAGGSLRLSCAASGRTFAFHDRGWYRQAPGNERELVAALTSVASTYYADSVKGRFTISRDNAKNTVYLQMNSLKPEDTAVYYCAADTRSLRPRYQLYGEDSWGQGTQVTVSS | low polyreactivity |
| QVQLVESGGGLVQAGGSLRLSCAASGRTFAFYAMGWYRQAPGKERELVASISSSGDRTYYADSVKGRFTISRDNAKNTVYLQMNSLKPEDTAVYYCAARWSYTYYYWGQGTQVTVSS | high polyreactivity |
| QVQLVESGGGLVQAGGSLRLSCAASGRTFAFYAMGWYRQAPGKERELVAVITKSGGITYYADSVKGRFTISRDNAKNTVYLQMKSLKPEDTAVYYCAADYRYTPNYLYYYWGQGTQVTVSS | low polyreactivity |
| QVQLVESGGGLVQAGGSLRLSCAASGRTFAFYGMGWYRQAPGKERELVATIRGTGGSTYYADSVKGRFTISRDNAKNTVYLQMNSLKPEDTAVYYCNKYLGIQVGSVPHDYWGQGSQVTVSS | high polyreactivity |
| QVQLVESGGGLVQAGGSLRLSCAASGRTFAGYAMGWYRQAPGKERELVATISRNGGSTYYADSVKGRFTISRDNAKNTVYLQMNSLKPEDTAVYYCAADRRGVVRFSRYRGIYDYWGQGTQVTVSS | high polyreactivity |
| QVQLVESGGGLVQAGGSLRLSCAASGRTFAHYAMGWYRQAPGKERELVAVITSGGITYYADSVKGRFTISRDNAKNTVYLQMNSLKPEDTAVYYCNVYSYYYSYGSPYDYWGQGTQVTVSS | high polyreactivity |
| QVQLVESGGGLVQAGGSLRLSCAASGRTFAIYAMGWYRQAPGKERELVAAISGSGGSTYYADSVKGRFTISRDNAKNTVYLQMNSLKPEDTAVYYCAKRVRGHRYDYWGQGTQVTVSS | high polyreactivity |
| QVQLVESGGGLVQAGGSLRLSCAASGRTFAIYAMGWYRQAPGKERELVATIRGGSTYYADSVKGRFTISRDNAKNTVYLQMNSLKPEDTAVYYCAAEFLYASVYYSYWGQGTQVTVSS | high polyreactivity |
| QVQLVESGGGLVQAGGSLRLSCAASGRTFAIYAMGWYRQAPGKERELVAVINYSGDRTYYADSVKGRFTISRDNAKNTVYLQMNSLKPEDTAVYYCAAVLEYTSDYLSGENDYWGQGTQVTVSS | low polyreactivity |
| QVQLVESGGGLVQAGGSLRLSCAASGRTFAKSAMGWSRQAPGKERELVAAIRWSGGSTYYADSVKARFTISRDNAKNTVYLQMNSLKPEDTAVYYCATERFLLGLGYDYWGQGTQVTVSS | high polyreactivity |
| QVQLVESGGGLVQAGGSLRLSCAASGRTFAKYAMAWYRQAPGKERELVAAINSSGGSTYYADSVKGRFTISRDNAKNTVYLQMNSLKPEDTAVYFCAALGIGSYRRYSGYDYWGQGTQVTVSS | low polyreactivity |
| QVQLVESGGGLVQAGGSLRLSCAASGRTFAKYAMGLYRQAPGKERELVAAITRGDTTNYADSVKGRFTISRDNAKNTVYLQMNSLKPEDTAVYYCAATPDPPHTYEYWGQGTQVTVSS | low polyreactivity |
| QVQLVESGGGLVQAGGSLRLSCAASGRTFAKYAMGWYRQAPGKERELVAAITSGGRTNYADSVKGRFTISRDNAKNTVYLQMNSLKPEDTAVYYCAARRYVVGYFQSKMDYWGQGTQVTVSS | high polyreactivity |
| QVQLVESGGGLVQAGGSLRLSCAASGRTFANNAMGWYRQAPGKERELVAAISFSTVSTYYADSVKGRFTISRDNAKYTVYLQMNSLKPEDTAVYYCAARRLGYYRKVKELVYWGQGTQVTVSS | high polyreactivity |
| QVQLVESGGGLVQAGGSLRLSCAASGRTFAPYAMGWYRQAPGKERELVAAISWSGGSTYYADSVKGRFTISRDNAKNTVYLQMNSLKPEDTAVYYCAADGGQTEFDYWGQGTQVTVSS | high polyreactivity |
| QVQLVESGGGLVQAGGSLRLSCAASGRTFAPYAMGWYRQAPGKERQLVAAISQRGGSTYYADSVKGRFTISRDNAKNTVYLQMNSLKPEDTAIYYCAATKYFYRLSSAFSFGTYGYWGQGTQVTVSS | low polyreactivity |
| QVQLVESGGGLVQAGGSLRLSCAASGRTFAPYVMGWYRQAPGKERELVAAITLSGDSTDYADSVKGRFTISRDNAKNTVYLQMNSLKPEDTAVYYCNVEYLSYTSYFHYYEYDYWGQGSQVTVSS | low polyreactivity |
| QVQLVESGGGLVQAGGSLRLSCAASGRTFAQYGMVWYRQAPGKEMELVAAISRRTGSTNYADSVKGRFTISRDNAKNTVYLQMNSLKPEDTAVYYCAARSYSYGVGYGYWGQGTQVTVSS | high polyreactivity |
| QVQLVESGGGLVQAGGSLRLSCAASGRTFARNAMGWYRQAPGKERELVASINRGGRTNYADSVKGRFTISRDNAKNTVYLQMNSLKPEDTAVYYCAKYILGVGPFFSTYDYWGQGTQVTVSS | high polyreactivity |
| QVQLVESGGGLVQAGGSLRLSCAASGRTFARYALGWYRQAPGKERELVAAISWSGGSTYYADSVKGRFTISRDNAKNTVYLQMNSLKPEDTAVDYCAAGYGARSAKFDVYGTNEGDYWGQGTQVTVSS | high polyreactivity |
| QVQLVESGGGLVQAGGSLRLSCAASGRTFARYAMGWYRQAPGKEREFVAGINWSGGGTYYADSVKGRFTISRDNAKNTVYLQMNSLKPEDTAVYYCASYTSVRPKLDYWGLGTQVTVSS | high polyreactivity |
